Test results published in PMC4006750, “GOLPH3 Is Essential for Contractile Ring Formation and Rab11 Localization to the Cleavage Site during Cytokinesis in Drosophila melanogaster” (PLoS Genetics, 2014).
Several values for one entry are separate records, joined by “and”; a condition that tells them apart may be missing. Equal entries are not always repeated.

Target: T1, Drosophila GOLPH3, GST removed (ligand of the SPR experiment) (Drosophila melanogaster, UniProt Q9VQ93 1-294)
T1 construct: Drosophila melanogaster GOLPH3 (CG7085, sauron), polypeptide of 293 amino acids, full-length cDNA in pGEX-6p-2; A few vector residues probably remain at the N-terminus after PreScission cleavage; also called dGOLPH3; source: E. coli BL21-CodonPlus [DE3], purified as GST fusion, GST cleaved off with PreScission Protease; not shown: GST, N-terminal, cleaved
Test: SPR; BIACORE X, GOLPH3 immobilised on CM5 chip by amine coupling (about 1200 RU); Rab11 analyte 50 nM to 10.0 µM in 10 mM Hepes pH 7.4, 150 mM NaCl, 0.005% surfactant P20, 30 µl/min
Settings: both partners purified

T1 sequence (Q9VQ93 whole entry, the tested form may be a part): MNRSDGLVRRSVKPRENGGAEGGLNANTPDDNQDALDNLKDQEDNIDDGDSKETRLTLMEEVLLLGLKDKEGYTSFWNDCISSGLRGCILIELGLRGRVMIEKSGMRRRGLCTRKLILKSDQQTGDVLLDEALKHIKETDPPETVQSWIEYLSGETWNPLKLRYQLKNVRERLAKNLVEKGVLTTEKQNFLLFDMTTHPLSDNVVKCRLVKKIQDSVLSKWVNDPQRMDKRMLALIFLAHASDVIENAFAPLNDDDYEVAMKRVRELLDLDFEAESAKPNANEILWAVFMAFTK

Kd: 180 nM
koff: ~0.0002 s⁻¹ and ~0.0001 s⁻¹
B1: Drosophila Rab11, GST removed (analyte of the SPR experiment) (natural protein, UniProt O18335 1-214, looked up)
chain: MGAREDEYDYLFKVVLIGDSGVGKSNLLSRFTRNEFNLESKSTIGVEFATRSIEVDGKTIKAQIWDTAGQERYRAITSAYYRGAVGALLVYDIAKHLTYENVERWLRELRDHADQNIVIMLVGNKSDLRHLRSVPTDEAKLFAERNGLSFIETSALDSTNVETAFQNILTEIYRIVSQKQIRDPPEGDVIRPSNVEPIDVKPTVTADVRKQCCQ
notes: Drosophila Rab11, full-length, made as GST fusion; source: E. coli BL21-CodonPlus [DE3], purified as GST fusion, GST cleaved off with PreScission Protease
